Assay results: US20250346685A1 (published 2025)
Where a chain is given by its changes, count along the chain named.

T1: human CD3εγ-Fc heterodimer (human)
T1 construct: also called human CD3εγ recombinant protein; human CD3εγ protein
T1 chain 1: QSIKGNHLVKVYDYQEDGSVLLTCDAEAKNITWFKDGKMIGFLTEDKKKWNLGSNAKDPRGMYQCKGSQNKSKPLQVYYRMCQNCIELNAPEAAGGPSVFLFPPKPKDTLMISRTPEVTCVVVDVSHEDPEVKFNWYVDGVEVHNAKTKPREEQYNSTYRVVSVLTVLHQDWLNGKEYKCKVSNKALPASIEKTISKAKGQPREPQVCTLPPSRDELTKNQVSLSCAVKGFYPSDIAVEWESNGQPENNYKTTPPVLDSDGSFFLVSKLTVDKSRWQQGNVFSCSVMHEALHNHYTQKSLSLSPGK
T1 chain 2: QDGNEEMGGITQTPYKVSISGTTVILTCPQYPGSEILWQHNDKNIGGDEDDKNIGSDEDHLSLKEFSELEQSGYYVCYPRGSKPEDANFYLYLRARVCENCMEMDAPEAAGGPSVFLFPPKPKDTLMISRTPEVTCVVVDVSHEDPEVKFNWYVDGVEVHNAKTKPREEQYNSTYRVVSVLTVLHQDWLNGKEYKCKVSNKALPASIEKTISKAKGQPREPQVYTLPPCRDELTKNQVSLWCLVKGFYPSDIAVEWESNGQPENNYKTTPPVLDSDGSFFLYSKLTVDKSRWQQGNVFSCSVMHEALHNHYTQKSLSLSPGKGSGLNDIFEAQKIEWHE

B1: BCMA × CD3 κλ003 (bispecific antibody, human IgG4 S228P, kappa, lambda)
light 1: DIVLTQSPASLAVSPGQRATITCRASKSVSTSGYSYMHWYQKKPGQPPKLLIYLASNLESGVPARFSGSGSGTDFTLTINPVEAEDTANYYCQHSRELPWTFGQGTKVEIKRTVAAPSVFIFPPSDEQLKSGTASVVCLLNNFYPREAKVQWKVDNALQSGNSQESVTEQDSKDSTYSLSSTLTLSKADYEKHKVYACEVTHQGLSSPVTKSFNRGEC
heavy 1: QVQLVQSGSELKKPGASVKVSCKASGYIFTNFGMNWVREAPGQGLEWMGWINTYTGEQIYADGFTGRFVFSLDTSASTAYLQISSLKAEDTAVYFCARGEIYYGYDVGFVYWGQGTLVTVSSASTKGPSVFPLAPCSRSTSESTAALGCLVKDYFPEPVTVSWNSGALTSGVHTFPAVLQSSGLYSLSSVVTVPSSSLGTKTYTCNVDHKPSNTKVDKRVESKYGPPCPPCPAPEFEGGPSVFLFPPKPKDTLMISRTPEVTCVVVDVSQEDPEVQFNWYVDGVEVHNAKTKPREEQFNSTYRVVSVLTVLHQDWLNGKEYKCKVSNKGLASSIEKTISKAKGQPREPQVCTLPPSQEEMTKNQVSLSCAVKGFYPSDIAVEWESNGQPENNYKTTPPVLDSDGSFFLVSKLTVDKSRWQEGNVFSCSVMHEALHNHYTQKSLSLSLGK
light 2: QAVVTQEPSLTVSPGGTVTLTCRSSTGAVTTSNYANWVQEKPGQAPRGLIGGTNKRAPWTPARFSGSLLGGKAALTITGAQAEDEAEYYCVLWYSNLWVFGGGTKLTVLGQPKAAPSVTLFPPSSEELQANKATLVCLISDFYPGAVTVAWKADSSPVKAGVETTTPSKQSNNKYAASSYLSLTPEQWKSHRSYSCQVTHEGSTVEKTVAPTECS
heavy 2: EVQLVESGGGLVQPGGSLRLSCAASGFTFNTYAMNWVRKAPGKGLEWVGRIRSKYNNYATYYADSVKDRFTISRDDSKNSLYLQMNSLKTEDTAVYYCVRHGNFGNSYVSWFAYWGQGTLVTVSSASTKGPSVFPLAPCSRSTSESTAALGCLVKDYFPEPVTVSWNSGALTSGVHTFPAVLQSSGLYSLSSVVTVPSSSLGTKTYTCNVDHKPSNTKVDKRVESKYGPPCPPCPAPEFEGGPSVFLFPPKPKDTLMISRTPEVTCVVVDVSQEDPEVQFNWYVDGVEVHNAKTKPREEQFNSTYRVVSVLTVLHQDWLNGKEYKCKVSNKGLASSIEKTISKAKGQPREPQVYTLPPCQEEMTKNQVSLWCLVKGFYPSDIAVEWESNGQPENNYKTTPPVLDSDGSFFLYSKLTVDKSRWQEGNVFSCSVMHEALHNHYTQKSLSLSLGK
notes: also called BCMA×CD3 κλ bispecific antibody
B2: aCD3-hVH1/VL5 (antibody, human IgG4, V domains shown)
VH: EVQLVESGGGLVQPGGSLRLSCAASGFTFNTYAMNWVRQAPGKGLEWVSRIRSKYNNYATYYADSVKDRFTISRDDSKNTLYLQMNSLRAEDTAVYYCVRHGNFGNSYVSWFAYWGQGTLVTVSS
VL: QAVVTQEPSLTVSPGGTVTLTCRSSTGAVTTSNYANWVQEKPGQAPRGLIGGTNKRAPWTPARFSGSLLGGKAALTITGAQAEDEAEYYCVLWYSNLWVFGGGTKLTVL
notes: also called humanized anti-CD3 antibody hVH1/VL5
B3: aCD3-hVH8/VL5 (antibody, human IgG4, V domains shown)
VH: B2 VH with Q39K, S49G, T80S, R89K, A90T, V99A
VL: B2 VL
notes: also called humanized anti-CD3 antibody hVH8/VL5
B4: aCD3-hVH9/VL1 (antibody, human IgG4, V domains shown)
VH: B2 VH with Q39K, S49G, T80S, R89K, A90T
VL: B2 VL with E40Q, I77L, T78S, A82P, V91A
notes: also called humanized anti-CD3 antibody hVH9/VL1
B5: aCD3-hVH8/VL1 (antibody, human IgG4, V domains shown)
VH: B2 VH with Q39K, S49G, T80S, R89K, A90T, V99A
VL: B2 VL with E40Q, I77L, T78S, A82P, V91A
notes: also called humanized anti-CD3 antibody hVH8/VL1
B6: aCD3-hVH9/VL3 (antibody, human IgG4, V domains shown)
VH: B2 VH with Q39K, S49G, T80S, R89K, A90T
VL: B2 VL with Q1E, R23E, T26D, R56E, I77L, T78S, A82P, V91A
notes: also called humanized anti-CD3 antibody hVH9/VL3
B7: BCMA × CD3 κλ006 (bispecific antibody)
light 1: B1 light 1 with S30T, M37I, N57D, S60A
heavy 1: B1 heavy 1 with A76V
light 2: B1 light 2
heavy 2: B1 heavy 2
notes: as for B1
B8: BCMA × CD3 κλ005 (bispecific antibody)
light 1: B1 light 1
heavy 1: B1 heavy 1 with A76V
light 2: B1 light 2
heavy 2: B1 heavy 2
notes: as for B1

Target: T2, human CD3 on T cells (Jurkat cells; human peripheral blood CD4+ and CD8+ T-cells) (human, UniProt P07766 23-207)
T2 construct: whole, on cells; also called CD4T; CD4 + T
Assay: flow cytometry on human peripheral blood CD4+ T-cells
Procedure: Fresh human peripheral blood was taken and PBMC was isolated by Ficoll. Paque Plu (GE, 17-1440-03). PBMC was adjusted to 5×10⁵ cells/mL with 4% calf serum (Hyclone, SH30626.06), 100 μL/well was added to a 96-well U-plate, the supernatant was centrifuged off and 100 μL of gradient diluted antibody (with starting concentration of 1800 nM, 3-fold dilution, 10 gradients) was added to each well and incubated for 60 min at 4° C. 50 μL/well of Alexa Fluro647 labeled goat anti-human IgG Fc (1:300 dilution) was added to the secondary antibody, with ice bath for 20 min, and 50 μL/well PI added after washing once, incubated for 5 min, and flow cytometer (BD C6) was used for detection. The control antibody REGN5458 was synthesized and prepared according to US20200024356.

Binder | EC50 [nM]
B1 | 89

Target: T1, human CD3εγ-Fc heterodimer
Assay: ELISA, coated human CD3εγ recombinant protein
Procedure: Human CD3εγ recombinant protein was coated overnight at 4° C. After blocking with 2% skim milk, different dilutions of CD3 antibody were added to each well and incubated for 1 hour. After the secondary antibody was developed by adding HPR-labeled goat anti-human IgG Fc and TMB solution, the reaction was stopped with concentrated sulfuric acid and the absorbance was read at 450 nm.

Binder | affinity (ELISA) [nM]
B2 | 0.6
B3 | 0.74
B4 | 0.49
B5 | 0.65
B6 | 0.7

Target: T2, human CD3 on T cells (Jurkat cells; …)
Assay: flow cytometry on Jurkat cells
Procedure: Jurkat cells in logarithmic growth phase were blocked with 3% BSA for 30 min, added to 96-well U-plate at 5×10^4 cells per well, centrifuged to discard the supernatant, and added with 50 μL of gradient diluted antibody (antibody concentration:from 30 μg/mL, with 3-fold dilution for 5 gradients) per well, and incubated at 4° C. for 1 hour. After washing off the primary antibody, a 1:300 dilution of Alexa Fluro647 labeled goat anti-human IgG Fc (Jackson ImmunoResearch, 109-606-170) was added to the secondary antibody, incubated for 45 min at 4° C., and, after washing, resuspended in 50 μL of PBS per well for FACS (iQue, intellicyt) detection.

Binder | affinity (FACS) [nM]
B2 | 10
B4 | 7
B5 | 15

Target: T1, human CD3εγ-Fc heterodimer
Assay: SPR (Biacore T200), antigen amine-coupled on CM5 chip, antibody as analyte, 1:1 model
Procedure: 10 μg/mL human or cynomolgus monkey BCMA or CD3εγ recombinant antigen was bound to a CM5 chip (GE healthcare) by amino conjugating, while the amount of antigen bound was controlled to approximately 200 RU. After baseline plateau, gradient diluted antibodies (7 gradients of 2-fold dilutions from 10 μg/mL) were flowed through the chip at a flow rate of 30 μL/min for a binding time of 350 seconds and a dissociation time of 600 seconds. Kinetic constants were fitted using Biacore T200 evaluation software with a 1:1 binding model.

Binder | Kd [nM]
B1 | 31
B7 | 27
B8 | 28
